The results in this text go back to publication PMC11260492.

The series concerns the target RPA (native, unlabeled heterotrimer) (human, UniProt P27694;P15927;P35244 1-616;1-270;1-121). The series is described as follows: FRET equilibrium titration.

Chain of RPA (native, unlabeled heterotrimer) (P27694 whole entry, chain 1 of 3): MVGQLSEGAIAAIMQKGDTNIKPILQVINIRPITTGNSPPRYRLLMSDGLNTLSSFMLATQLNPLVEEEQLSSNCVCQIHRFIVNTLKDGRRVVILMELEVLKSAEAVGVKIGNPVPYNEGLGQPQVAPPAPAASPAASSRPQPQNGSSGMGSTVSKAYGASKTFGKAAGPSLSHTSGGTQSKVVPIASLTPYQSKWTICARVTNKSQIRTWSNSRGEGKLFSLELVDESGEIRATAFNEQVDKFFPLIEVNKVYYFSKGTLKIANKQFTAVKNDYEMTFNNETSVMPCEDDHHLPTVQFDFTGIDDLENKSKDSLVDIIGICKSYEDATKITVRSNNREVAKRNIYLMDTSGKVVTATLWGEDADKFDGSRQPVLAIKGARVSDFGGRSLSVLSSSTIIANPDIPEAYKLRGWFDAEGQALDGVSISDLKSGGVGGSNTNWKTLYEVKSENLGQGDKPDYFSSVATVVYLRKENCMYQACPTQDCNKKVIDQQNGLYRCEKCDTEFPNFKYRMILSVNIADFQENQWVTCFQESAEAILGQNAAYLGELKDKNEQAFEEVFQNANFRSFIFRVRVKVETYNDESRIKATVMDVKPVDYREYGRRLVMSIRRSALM
Chain of RPA (native, unlabeled heterotrimer) (P15927 whole entry, chain 2 of 3): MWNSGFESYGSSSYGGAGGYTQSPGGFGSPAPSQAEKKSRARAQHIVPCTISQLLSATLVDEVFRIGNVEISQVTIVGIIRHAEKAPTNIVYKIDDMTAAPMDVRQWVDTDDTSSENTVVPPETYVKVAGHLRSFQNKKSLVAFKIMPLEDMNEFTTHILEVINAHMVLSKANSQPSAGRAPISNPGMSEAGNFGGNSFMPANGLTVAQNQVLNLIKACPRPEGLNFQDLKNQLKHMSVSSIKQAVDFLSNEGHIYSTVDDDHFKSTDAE
Chain of RPA (native, unlabeled heterotrimer) (P35244 whole entry, chain 3 of 3): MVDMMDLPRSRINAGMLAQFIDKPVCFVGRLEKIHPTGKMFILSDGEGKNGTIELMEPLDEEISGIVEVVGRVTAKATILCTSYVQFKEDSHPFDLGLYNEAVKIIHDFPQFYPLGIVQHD

B1: poly(dT)30-FRET (ssDNA)
DNA: TTTTTTTTTTTTTTTTTTTTTTTTTTTTTT
As to B1, the binding result was “binds”.
